What all share (experiment): cell-based or functional assay
The target in assay [1] is transthyretin (TTR), pre-incubated at pH 4.5 for 24 hrs, toxic oligomer-containing solution (UniProt P02766).
In assay [2] the target is β-amyloid peptide 1-42 (Aβ), pre-aggregated for 6 hrs, toxic oligomer-containing solution (UniProt P05067).
Assay [3] has as its target β-amyloid peptide 1-42 (Aβ), fresh (0 h), monomeric (UniProt P05067).

Sequence of β-amyloid peptide 1-42 (Aβ), pre-aggregated for 6 hrs, toxic oligomer-containing solution (P05067 672-713 limits assumed): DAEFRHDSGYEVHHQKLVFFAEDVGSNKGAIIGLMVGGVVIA
Sequence of β-amyloid peptide 1-42 (Aβ), fresh (0 h), monomeric (P05067 672-713 limits assumed): as above

With “α1 (ldas90, peptide #1 of FIG. 5), Ac-RGEmNlSwMNEYSGWtMnLkMGR-NH2 (designed binder)”, in assay [1], the inhibition of the remaining TTR aggregation after addition to 24-hour pre-incubated, toxic TTR (Congo red) is 81% and the percentage inhibition of TTR aggregation (Congo red binding, 48 h, 37° C., pH 4.5; peptide co-incubated 20:1 from the start) stood at 72%. Moreover, in assay [2], the inhibition of Aβ fibril formation (ThT fluorescence, 22 hours, 37° C.; peptide co-incubated 10:1 from the start) stood at 87% and the inhibition of aggregation after addition to pre-aggregated (6 hrs), toxic Aβ (ThT) is 97%.
On to “β (β-sheet control design: Trpzip 3 peptide with Trp to Leu substitutions) (designed binder)”, for which the inhibition of Aβ fibrillization (ThT fluorescence; co-incubated 10:1) in assay [3] is 62%.

The values are drawn from patent US20160031952A1.
